# Assay results as given in the supplement of paper PMC5998384.
# How the values were obtained:
# [1] = test system: HeLa Kyoto; assay: solubility in G1/S (NP-40 vs SDS abundance) (log2 ratio); higher = more soluble; details: cell cycle stage: G1/S
# [2] = test system: HeLa Kyoto; assay: melting temperature (median over replicates), in situ; higher = more thermally stable
# [3] = test system: HeLa Kyoto; assay: solubility change mitosis vs G1/S (difference of NP-40 vs SDS log2 ratios) (log2 ratio difference); higher = more soluble in mitosis
# [4] = test system: HeLa Kyoto; assay: thermal stability score vs G1/S (z-score of summed log2 fold changes over temperatures); higher = more thermally stable than in G1/S
# [5] = cell cycle stage: early G1 (4.5 h after nocodazole release)
# 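Throughout, for melting temperature (median over replicates), in situ: HeLa Kyoto cells synchronized by double thymidine or nocodazole block, proteins quantified by TMT10plex mass spectrometry, three independent biological replicates.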
# 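Throughout, for solubility change mitosis vs G1/S (difference of NP-40 vs SDS log2 ratios): synchronized HeLa Kyoto cells (double thymidine block for G1/S, nocodazole release for mitosis), protein amounts in NP-40 versus SDS lysates quantified by mass spectrometry, three biological replicates.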
# 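Throughout, for solubility in G1/S (NP-40 vs SDS abundance): HeLa Kyoto cells arrested at G1/S by double thymidine block, proteins quantified by TMT10plex mass spectrometry in mild NP-40 versus SDS extracts, three biological replicates.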
# 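Throughout, for thermal stability score vs G1/S (z-score of summed log2 fold changes over temperatures): synchronized HeLa Kyoto cells, proteins quantified by TMT10plex mass spectrometry, three biological replicates, mitosis taken 0.5 h after nocodazole release, G1/S directly after double thymidine block.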
Sequence,solubility in G1/S (log2) [1],melting temperature ([2]; cell cycle stage: G1/S),melting temperature ([2]; cell cycle stage: mitosis),solubility change mitosis (log2) [3],"thermal stability score [4, 5]",thermal stability score ([4]; cell cycle stage: mitosis)
MPVFHTRTIESILEPVAQQISHLVIMHEEGEVDGKAIPDLTAPVAAVQAAVSNLVRVGKETVQTTEDQILKRDMPPAFIKVENACTKLVQAAQMLQSDPYSVPARDYLIDGSRGILSGTSDLLLTFDEAEVRKIIRVCKGILEYLTVAEVVETMEDLVTYTKNLGPGMTKMAKMIDERQQELTHQEHRVMLVNSMNTVKELLPVLISAMKIFVTTKNSKNQGIEEALKNRNFTVEKMSAEINEIIRVLQLTSWDEDAWASKDTEAMKRALASIDSKLNQAKGWLRDPSASPGDAGEQAIRQILDEAGKVGELCAGKERREILGTCKMLGQMTDQVADLRARGQGSSPVAMQKAQQVSQGLDVLTAKVENAARKLEAMTNSKQSIAKKIDAAQNWLADPNGGPEGEEQIRGALAEARKIAELCDDPKERDDILRSLGEISALTSKLADLRRQGKGDSPEARALAKQVATALQNLQTKTNRAVANSRPAKAAVHLEGKIEQAQRWIDNPTVDDRGVGQAAIRGLVAEGHRLANVMMGPYRQDLLAKCDRVDQLTAQLADLAARGEGESPQARALASQLQDSLKDLKARMQEAMTQEVSDVFSDTTTPIKLLAVAATAPPDAPNREEVFDERAANFENHSGKLGATAEKAAAVGTANKSTVEGIQASVKTARELTPQVVSAARILLRNPGNQAAYEHFETMKNQWIDNVEKMTGLVDEAIDTKSLLDASEEAIKKDLDKCKVAMANIQPQMLVAGATSIARRANRILLVAKREVENSEDPKFREAVKAASDELSKTISPMVMDAKAVAGNISDPGLQKSFLDSGYRILGAVAKVREAFQPQEPDFPPPPPDLEQLRLTDELAPPKPPLPEGEVPPPRPPPPEEKDEEFPEQKAGEVINQPMMMAARQLHDEARKWSSKPGIPAAEVGIGVVAEADAADAAGFPVPPDMEDDYEPELLLMPSNQPVNQPILAAAQSLHREATKWSSKGNDIIAAAKRMALLMAEMSRLVRGGSGTKRALIQCAKDIAKASDEVTRLAKEVAKQCTDKRIRTNLLQVCERIPTISTQLKILSTVKATMLGRTNISDEESEQATEMLVHNAQNLMQSVKETVREAEAASIKIRTDAGFTLRWVRKTPWYQ [VCL],0.182,56.4 °C,55.4 °C,-0.0931,-1.64,-1.78
MPVWGGGNKCGACGRTVYHAEEVQCDGRSFHRCCFLCMVCRKNLDSTTVAIHDEEIYCKSCYGKKYGPKGYGYGQGAGTLNMDRGERLGIKPESVQPHRPTTNPNTSKFAQKYGGAEKCSRCGDSVYAAEKIIGAGKPWHKNCFRCAKCGKSLESTTLTEKEGEIYCKGCYAKNFGPKGFGYGQGAGALVHAQ [CSRP2],-0.179,59.4 °C,54.6 °C,-0.0558,1.39,-3.46
MPYQYPALTPEQKKELSDIAHRIVAPGKGILAADESTGSIAKRLQSIGTENTEENRRFYRQLLLTADDRVNPCIGGVILFHETLYQKADDGRPFPQVIKSKGGVVGIKVDKGVVPLAGTNGETTTQGLDGLSERCAQYKKDGADFAKWRCVLKIGEHTPSALAIMENANVLARYASICQQNGIVPIVEPEILPDGDHDLKRCQYVTEKVLAAVYKALSDHHIYLEGTLLKPNMVTPGHACTQKFSHEEIAMATVTALRRTVPPAVTGITFLSGGQSEEEASINLNAINKCPLLKPWALTFSYGRALQASALKAWGGKKENLKAAQEEYVKRALANSLACQGKYTPSGQAGAAASESLFVSNHAY [ALDOA],0.345,58.2 °C,58.5 °C,-0.0218,-1.95,-2.35
MQAARMAASLGRQLLRLGGGSSRLTALLGQPRPGPARRPYAGGAAQLALDKSDSHPSDALTRKKPAKAESKSFAVGMFKGQLTTDQVFPYPSVLNEEQTQFLKELVEPVSRFFEEVNDPAKNDALEMVEETTWQGLKELGAFGLQVPSELGGVGLCNTQYARLVEIVGMHDLGVGITLGAHQSIGFKGILLFGTKAQKEKYLPKLASGETVAAFCLTEPSSGSDAASIRTSAVPSPCGKYYTLNGSKLWISNGGLADIFTVFAKTPVTDPATGAVKEKITAFVVERGFGGITHGPPEKKMGIKASNTAEVFFDGVRVPSENVLGEVGSGFKVAMHILNNGRFGMAAALAGTMRGIIAKAVDHATNRTQFGEKIHNFGLIQEKLARMVMLQYVTESMAYMVSANMDQGATDFQIEAAISKIFGSEAAWKVTDECIQIMGGMGFMKEPGVERVLRDLRIFRIFEGTNDILRLFVALQGCMDKGKELSGLGSALKNPFGNAGLLLGEAGKQLRRRAGLGSGLSLSGLVHPELSRSGELAVRALEQFATVVEAKLIKHKKGIVNEQFLLQRLADGAIDLYAMVVVLSRASRSLSEGHPTAQHEKMLCDTWCIEAAARIREGMAALQSDPWQQELYRNFKSISKALVERGGVVTSNPLGF [ACADVL],0.117,54.9 °C,55 °C,-0.118,0.172,-2.03
MQAERGARGGRGRRPGRGRPGGDRHSERPGAAAAVARGGGGGGGGDGGGRRGRGRGRGFRGARGGRGGGGAPRGSRREPGGWGAGASAPVEDDSDAETYGEENDEQGNYSKRKIVSNWDRYQDIEKEVNNESGESQRGTDFSVLLSSAGDSFSQFRFAEEKEWDSEASCPKQNSAFYVDSELLVRALQELPLCLRLNVAAELVQGTVPLEVPQVKPKRTDDGKGLGMQLKGPLGPGGRGPIFELKSVAAGCPVLLGKDNPSPGPSRDSQKPTSPLQSAGDHLEEELDLLLNLDAPIKEGDNILPDQTSQDLKSKEDGEVVQEEEVCAKPSVTEEKNMEPEQPSTSKNVTEEELEDWLDSMIS [AVEN],0.312,52.9 °C,52.6 °C,0.0958,-0.264,-2.4
MQAGKPILYSYFRSSCSWRVRIALALKGIDYKTVPINLIKDRGQQFSKDFQALNPMKQVPTLKIDGITIHQSLAIIEYLEEMRPTPRLLPQDPKKRASVRMISDLIAGGIQPLQNLSVLKQVGEEMQLTWAQNAITCGFNALEQILQSTAGIYCVGDEVTMADLCLVPQVANAERFKVDLTPYPTISSINKRLLVLEAFQVSHPCRQPDTPTELRA [GSTZ1],0.447,53.5 °C,52.9 °C,0.0886,-2.37,-2.09
MQAHELFRYFRMPELVDFRQYVRTLPTNTLMGFGAFAALTTFWYATRPKPLKPPCDLSMQSVEVAGSGGARRSALLDSDEPLVYFYDDVTTLYEGFQRGIQVSNNGPCLGSRKPDQPYEWLSYKQVAELSECIGSALIQKGFKTAPDQFIGIFAQNRPEWVIIEQGCFAYSMVIVPLYDTLGNEAITYIVNKAELSLVFVDKPEKAKLLLEGVENKLIPGLKIIVVMDAYGSELVERGQRCGVEVTSMKAMEDLGRANRRKPKPPAPEDLAVICFTSGTTGNPKGAMVTHRNIVSDCSAFVKATENTVNPCPDDTLISFLPLAHMFERVVECVMLCHGAKIGFFQGDIRLLMDDLKVLQPTVFPVVPRLLNRMFDRIFGQANTTLKRWLLDFASKRKEAELRSGIIRNNSLWDRLIFHKVQSSLGGRVRLMVTGAAPVSATVLTFLRAALGCQFYEGYGQTECTAGCCLTMPGDWTAGHVGAPMPCNLIKLVDVEEMNYMAAEGEGEVCVKGPNVFQGYLKDPAKTAEALDKDGWLHTGDIGKWLPNGTLKIIDRKKHIFKLAQGEYIAPEKIENIYMRSEPVAQVFVHGESLQAFLIAIVVPDVETLCSWAQKRGFEGSFEELCRNKDVKKAILEDMVRLGKDSGLKPFEQVKGITLHPELFSIDNGLLTPTMKAKRPELRNYFRSQIDDLYSTIKV [ACSL1],0.0525,51.6 °C,52.1 °C,-0.213,-0.625,-1.37
MQALRHVVCALSGGVDSAVAALLLRRRGYQVTGVFMKNWDSLDEHGVCTADKDCEDAYRVCQILDIPFHQVSYVKEYWNDVFSDFLNEYEKGRTPNPDIVCNKHIKFSCFFHYAVDNLGADAIATGHYARTSLEDEEVFEQKHVKKPEGLFRNRFEVRNAVKLLQAADSFKDQTFFLSQVSQDALRRTIFPLGGLTKEFVKKIAAENRLHHVLQKKESMGMCFIGKRNFEHFLLQYLQPRPGHFISIEDNKVLGTHKGWFLYTLGQRANIGGLREPWYVVEKDSVKGDVFVAPRTDHPALYRDLLRTSRVHWIAEEPPAALVRDKMMECHFRFRHQMALVPCVLTLNQDGTVWVTAVQAVRALATGQFAVFYKGDECLGSGKILRLGPSAYTLQKGQRRAGMATESPSDSPEDGPGLSPLL [TRMU],-0.242,50.7 °C,51.1 °C,-0.134,0.5,0.388
MQPQSVLHSGYFHPLLRAWQTATTTLNASNLIYPIFVTDVPDDIQPITSLPGVARYGVKRLEEMLRPLVEEGLRCVLIFGVPSRVPKDERGSAADSEESPAIEAIHLLRKTFPNLLVACDVCLCPYTSHGHCGLLSENGAFRAEESRQRLAEVALAYAKAGCQVVAPSDMMDGRVEAIKEALMAHGLGNRVSVMSYSAKFASCFYGPFRDAAKSSPAFGDRRCYQLPPGARGLALRAVDRDVREGADMLMVKPGMPYLDIVREVKDKHPDLPLAVYHVSGEFAMLWHGAQAGAFDLKAAVLEAMTAFRRAGADIIITYYTPQLLQWLKEE [ALAD],0.106,57 °C,55.2 °C,-0.212,-2.61,-2.88
